From paper PMC5374532, “Rational mutagenesis by engineering disulphide bonds improves Kluyveromyces lactis beta-galactosidase for high-temperature industrial applications” (Scientific Reports, 2017)

Tests used:
[1] = target: Kluyveromyces lactis β-galactosidase mutant R116C/T270C (Kluyveromyces lactis) (UniProt P00723); assay: AUC; sedimentation velocity, 0.2 mg/mL enzyme, 50 mM Tris-HCl, 150 mM NaCl, pH 7.4, 48 k rpm, c(s) distribution (SEDFIT); self-association, shares of monomer, dimer, trimer and tetramer
[2] = target: Kluyveromyces lactis β-galactosidase mutant R116C/T270C (Kluyveromyces lactis) (UniProt P00723); assay: AUC; sedimentation velocity, 0.1 mg/mL enzyme, 50 mM Tris-HCl, 150 mM NaCl, pH 7.4, 48 k rpm, c(s) distribution (SEDFIT); self-association
[3] = target: Kluyveromyces lactis β-galactosidase mutant R116C/T270C/G818C (Kluyveromyces lactis) (UniProt P00723); assay: AUC; sedimentation velocity, 0.2 mg/mL enzyme, 50 mM Tris-HCl, 150 mM NaCl, pH 7.4, 48 k rpm, c(s) distribution (SEDFIT); self-association, shares of monomer, dimer, trimer and tetramer
[4] = target: Kluyveromyces lactis β-galactosidase mutant R116C/T270C/G818C (Kluyveromyces lactis) (UniProt P00723); assay: AUC; sedimentation velocity, 0.1 mg/mL enzyme, 50 mM Tris-HCl, 150 mM NaCl, pH 7.4, 48 k rpm, c(s) distribution (SEDFIT); self-association

Row | percent of the protein as dimer [1] | percent of the protein as monomer [1] | percent of the protein as tetramer [1] | percent of the protein as trimer [1] | increase in monomeric forms at 0.1 mg/mL against 0.2 mg/mL [2] | percent of the protein as dimer [3] | percent of the protein as monomer [3] | percent of the protein as tetramer [3] | percent of the protein as trimer [3] | increase in monomeric forms at 0.1 mg/mL against 0.2 mg/mL [4] | Substance
1 | 20.9% | 21.9% | 49.3% | 7.9% | 0.8% | – | – | – | – | – | Kluyveromyces lactis β-galactosidase mutant R116C/T270C (from UniProt P00723 2-1025) (enzyme)
2 | – | – | – | – | – | 57.2% | 7.3% | 23% | 12.6% | 2.1% | Kluyveromyces lactis β-galactosidase mutant R116C/T270C/G818C (from UniProt P00723 2-1025) (enzyme)
